Measurements published in patent publication US11629193B2, “EGFR binding molecules” (F-STAR BETA LIMITED, priority 2016, dated 2023).
Entries after “also recorded” stand apart in the source; their conditions may differ.

What was measured:
HER3 = target: T1, HER3 (Homo sapiens, UniProt P21860); assay: ELISA for specific binding within the HER receptor family; details: 1 μM, antigen coated at 1 μg/ml
T1 construct: purchased Sino Biological 10201-H08H
Protocol: Antigens including EGFR (produced in house), HER2 His Tag (Sino Biological, 10004-H08H), HER3 His Tag (Sino Biological, 10201-H08H) and HER4 His Tag (Sino Biological, 10363-H08H) were biotinylated using the Lightning-Link™ Biotin kit (Innova Biosciences, 704-0030) following the supplier's protocol. The biotinylated antigens were coated in different wells on MaxiSorp™ plate (Nunc) at 1 μg/ml in PBS overnight at 4° C. and excess unbound antigens were washed off with PBS. The antigen-coated plate was blocked with 1% TWEEN® in PBS (PBST) for 1 hour at room temperature. After removing PBST, the anti-EGFR Fcabs (1 μM) and relevant positive and IgG negative antibody controls (1 μM) in 0.1% PBST were incubated for 1 hour to bind the coated antigens followed by washing. The bound Fcabs or antibodies were detected by Protein A-HRP (ThermoFisher 101023) or anti-mouse IgG-horseradish peroxidase (HRP) (Sigma A9044) for the HER4 positive control. Tetramethylbenzidine (TMB) (eBioscience 00-4201-56) was used as the substrate to interact with HRP enzyme for colorimetric detection. 1 M Sulphuric acid was added to stop the enzyme-substrate reaction. The plate was read at an absorbance of 450 nm subtracted by 630 nm as background.

KP4 cells = assay: Cell proliferation, KP4 cells (WST-1); type: cell-based; details: KP4, 0.003-300 nM, 3 days
Protocol: KP4 (Riken RCB1005) is a pancreatic ductal cell carcinoma which has autocrine production of HGF. […] After 3 days, cells were analysed using cell proliferation reagent WST-1 (Roche) to determine the number of viable cells as described in the manufacturer's protocol. The stable tetrazolium salt WST-1 is cleaved to a soluble formazan by the glycolytic production of NAD(P)H in viable cells. The amount of formazan dye formed is quantitated at absorbances 450 nm and 630 nm.

NCI-H596 cells = assay: Cell proliferation, NCI-H596 cells stimulated with EGF and HGF; type: cell-based; details: NCI-H596, 10-1000 nM, 2 ng/ml EGF and 12 ng/ml HGF, 3 days
Protocol: NCI-H596 (ATCC HTB-178) is a lung adenosquamous cancer cell line that engages both the EGF and HGF signalling pathways and was used to investigate the ability of mAb^2 molecules to block proliferation. The same method was used as in the U87MG assay described above, except that the NCI-H596 cells were stimulated with both EGF and HGF ligands. One day before the treatment, the level of FBS used in the media was reduced from 10% to 1%. The next day treatments were added at various concentrations (10-1000 nM) in the presence of 2 ng/ml EGF (R&D systems, 236-EG) and 12 ng/ml HGF (PeproTech, 100-39) and incubated for 3 days at 37° C. Controls of HGF+EGF, EGF only, HGF only and no ligand stimulation were also included.

NCI-H1975 cells = assay: Cell proliferation, NCI-H1975 cells stimulated with HGF; type: cell-based
Protocol: NCI-H1975 (ATCC CRL-5908) is a non-small cell lung cancer (NSCLC) cell line which expresses constitutively active mutated EGFR L858R and EGFR T790M (Kobayashi et al 2005). These mutations are acquired secondary mutations known to confer resistance to EGFR tyrosine kinase inhibitor (TKI) therapies in NSCLC patients. The NCI-H1975 cell line also expresses c-Met. […] The same method was used as in the U87MG assay described above, except that the NCI-H1975 cells were stimulated with HGF. One day before the treatment, the medium used was changed from containing 10% FBS to containing no serum. Treatments were added at various concentrations (0.003-300 nM) in the presence of 80 ng/ml HGF and incubated for 3 days at 37° C.

[1] = system: phosphorylation of c-Met and EGFR; assay: Western blot of receptor phosphorylation in U87MG cells; type: cell-based, human; details: 200 nM, 20 min
Protocol: (§1) Overnight cultures of the glioblastoma cell line U87MG (ATCC HTB-14) were moved from a medium with 10% FBS to a low serum medium with 0.1% FBS to optimise sensitivity to ligand stimulation. The cells were incubated overnight. […] Controls without antibody treatment were included, with and without growth factor stimulation. The treated cells were lysed using lysis buffer (10 mM Tris® pH7.5, 150 mM NaCl, 1 mM EDTA) comprising 1:100 protease inhibitor cocktail (Calbiochem, 539131) and 1:100 Phosphatase inhibitor cocktail (Calbiochem, 524625) and the lysates collected for analysis.
(§2) Lysate samples were subjected to standard western blotting analysis using a 4-12% Bis-Tris® protein gel (ThermoFisher, NP0322BOX) and transferred to a nitrocellulose membrane (ThermoFisher, IB301001). The membrane was blocked with 5% Marvel milk/TBST and then probed for phospho-c-Met using a rabbit monoclonal antibody specific for c-Met phosphorylated at Tyr1234/1235 (Cell Signaling, 3077), phospho-EGFR using a mouse monoclonal antibody specific for EGFR phosphorylated at Tyr1068 (Cell Signaling, 2236), phospho-MAPK using a mouse monoclonal antibody specific for p44/42 MAPK (ERK1/2) phosphorylated at Thr202/Tyr204 (Cell Signaling, 9106), and phospho-Akt using a rabbit monoclonal antibody specific for Akt phosphorylated at Ser473 (Cell Signaling, 9271). […]

HGF = target: T2, HGF (Homo sapiens, UniProt P14210); assay: Free HGF in culture media of U87MG cells (HGF Human ELISA Kit); type: cell-based; details: 30 nM, 4 days, compared to controls
T2 construct: examined in U87MG cells that secrete HGF; endogenous in cells; host or cells: U87MG
T2 sequence (P14210 32-728): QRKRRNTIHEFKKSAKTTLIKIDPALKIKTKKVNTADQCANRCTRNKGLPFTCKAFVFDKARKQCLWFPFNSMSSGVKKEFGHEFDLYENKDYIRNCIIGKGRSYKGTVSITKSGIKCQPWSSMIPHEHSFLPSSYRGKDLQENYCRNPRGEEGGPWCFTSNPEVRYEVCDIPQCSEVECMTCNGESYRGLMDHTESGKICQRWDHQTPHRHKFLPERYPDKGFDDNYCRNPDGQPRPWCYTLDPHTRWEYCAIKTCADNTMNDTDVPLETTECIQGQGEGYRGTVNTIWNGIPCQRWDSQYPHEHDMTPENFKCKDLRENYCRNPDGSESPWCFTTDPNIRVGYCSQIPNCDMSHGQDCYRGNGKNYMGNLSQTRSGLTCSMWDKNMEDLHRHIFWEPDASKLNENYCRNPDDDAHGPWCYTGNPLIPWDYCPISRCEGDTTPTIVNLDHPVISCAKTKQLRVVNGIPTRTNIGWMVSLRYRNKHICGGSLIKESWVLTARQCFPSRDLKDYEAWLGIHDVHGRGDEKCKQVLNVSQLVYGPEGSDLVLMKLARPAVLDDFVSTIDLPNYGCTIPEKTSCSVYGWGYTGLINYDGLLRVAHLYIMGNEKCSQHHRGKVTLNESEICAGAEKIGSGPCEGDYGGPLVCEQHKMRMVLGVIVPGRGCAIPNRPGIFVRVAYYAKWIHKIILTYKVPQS
Protocol: It was hypothesised that internalisation of HGF by anti-EGFR/HGF mAb^2 leads to reduced level of HGF in the system. To test this hypothesis, the change in level of free HGF caused by incubation with anti-EGFR/HGF mAb^2 was examined in U87MG cells that secrete HGF. U87MG cultures were incubated with different treatments at 30 nM for 4 days at 37° C. […] On day 4, the media from each cell culture were collected for HGF level analysis. HGF concentration was measured using HGF Human ELISA Kit (ThermoFisher, KAC2211) following the manufacturer's protocol. Using monoclonal anti-HGF antibodies, the free HGF in media was detected (free HGF was defined as HGF in the media which was bound by detection antibodies).

[2] = system: phosphorylation of MAPK and Akt; assay: Western blot of downstream signalling in U87MG cells; type: cell-based, human; details: 200 nM (200+200 nM for combination), HGF and EGF present
Protocol: as §1, §2

B1: MM121: antibody MM121 (Merrimack), positive control for HER3 (antibody, chains of the INN, looked up)
heavy: EVQLLESGGGLVQPGGSLRLSCAASGFTFSHYVMAWVRQAPGKGLEWVSSISSSGGWTLYADSVKGRFTISRDNSKNTLYLQMNSLRAEDTAVYYCTRGLKMATIFDYWGQGTLVTVSSASTKGPSVFPLAPCSRSTSESTAALGCLVKDYFPEPVTVSWNSGALTSGVHTFPAVLQSSGLYSLSSVVTVPSSNFGTQTYTCNVDHKPSNTKVDKTVERKCCVECPPCPAPPVAGPSVFLFPPKPKDTLMISRTPEVTCVVVDVSHEDPEVQFNWYVDGVEVHNAKTKPREEQFNSTFRVVSVLTVVHQDWLNGKEYKCKVSNKGLPAPIEKTISKTKGQPREPQVYTLPPSREEMTKNQVSLTCLVKGFYPSDIAVEWESNGQPENNYKTTPPMLDSDGSFFLYSKLTVDKSRWQQGNVFSCSVMHEALHNHYTQKSLSLSPG
light: QSALTQPASVSGSPGQSITISCTGTSSDVGSYNVVSWYQQHPGKAPKLIIYEVSQRPSGVSNRFSGSKSGNTASLTISGLQTEDEADYYCCSYAGSSIFVIFGGGTKVTVLGQPKAAPSVTLFPPSSEELQANKATLVCLVSDFYPGAVTVAWKADGSPVKVGVETTKPSKQSNNKYAASSYLSLTPEQWKSHRSYSCRVTHEGSTVEKTVAPAECS
binding to HER3 (HER3): bound to their corresponding antigens

B2: ficlatuzumab (antibody, V domains shown)
VH: QVQLVQPGAEVKKPGTSVKLSCKASGYTFTTYWMHWVRQAPGQGLEWIGEINPTNGHTNYNQKFQGRATLTVDKSTSTAYMELSSLRSEDTAVYYCARNYVGSIFDYWGQGTLLTVSS
VL: DIVMTQSPDSLAMSLGERVTLNCKASENVVSYVSWYQQKPGQSPKLLIYGASNRESGVPDRFSGSGSATDFTLTISSVQAEDVADYHCGQSYNYPYTFGQGTKLEIKR
modifications: FI VH domain; FI VL domain
reduction in cell proliferation (WST-1) (KP4 cells): concentration-dependent reduction in cell proliferation; also recorded: inhibited cell proliferation, but to a lesser extent
inhibition of cell proliferation induced by HGF and EGF (NCI-H596 cells): unable to block stimulation when both ligands were present
reduction of cell proliferation induced by HGF (NCI-H1975 cells; NCI-H1975, 0.003-300 nM, 80 ng/ml HGF, 3 days): did not
reduction of cell proliferation induced by HGF (NCI-H1975 cells; NCI-H1975, antibodies 300 nM with and without erlotinib (2 μM)): No effect
block of phosphorylation of c-Met by HGF [1]: able to block the phosphorylation of c-Met by HGF
concentration of free HGF in the media (HGF): significant decrease in the concentration of free HGF in the media
block of phosphorylation of MAPK and Akt [2]: unable to block the phosphorylation of MAPK and Akt
